The values below come from publication PMC3903132.

For the assay, the target named is PSI^PsaJF, phage-mimetic photosystem I complex with the fused PsaJF subunit (one monomer of the trimer) (Synechocystis sp. PCC 6803) (UniProt P29254). In words: crystal structure; PSI^PsaJF trimer purified from Synechocystis membranes, 3.8 Å, space group P21, three monomers in the asymmetric unit.

Broadly, the stoichiometry N is a count of units in the complex or per binding partner. As to “PSI^PsaJF, phage-mimetic photosystem I complex with the fused PsaJF subunit (one monomer of the trimer) (from UniProt P29254 1-751; P29255 1-731; P32422 1-81; P19569 1-141; P12975 1-74; Q55329 1-40; P29256 84-165; Q55330 1-40; P72712 1-86; P37277 1-157; P72986 1-31)”, the stoichiometry N was 3.
